Data taken from paper PMC4912689, “The Extracellular Surface of the GLP-1 Receptor Is a Molecular Trigger for Biased Agonism” (Cell, 2016).
Numbering of substitutions follows the chain as printed. Names may count otherwise. “Also recorded” adds a separate entry of the source.

B1: glucagon-like peptide 1 receptor (GLP-1R), wild-type, P43220 S206A (protein)
chain: RPQGATVSLWETVQKWREYRRQCQRSLTEDPPPATDLFCNRTFDEYACWPDGEPGSFVNVSCPWYLPWASSVPQGHVYRFCTAEGLWLQKDNSSLPWRDLSECEESKRGERSSPEEQLLFLYIIYTVGYALSFSALVIASAILLGFRHLHCTRNYIHLNLFASFILRALSVFIKDAALKWMYATAAQQHQWDGLLSYQDSLSCRLVFLLMQYCVAANYYWLLVEGVYLYTLLAFSVLSEQWIFRLYVSIGWGVPLLFVVPWGIVKYLYEDEGCWTRNSNMNYWLIIRLPILFAIGVNFLIFVRVICIVVSKLKANLMCKTDIKCRLAKSTLTLIPLLGTHEVIFAFVMDEHARGTLRFIKLFTELSFTSFQGLMVAILYCFVNNEVQLEFRKSWERWRLEHLHIQRDSSMKPLKCPTSSLSSGATAGSSMYTATCQASCS
B2: glucagon-like peptide 1 receptor (GLP-1R), wild-type, P43220 L290A (protein)
chain: B1 chain with A183S, L267A
B3: glucagon-like peptide 1 receptor (GLP-1R), wild-type, P43220 Q211A (protein)
chain: B1 chain with A183S, Q188A
B4: glucagon-like peptide 1 receptor (GLP-1R), wild-type, P43220 T386A (protein)
chain: B1 chain with A183S, T363A
B5: glucagon-like peptide 1 receptor (GLP-1R), wild-type, P43220 Y205A (protein)
chain: B1 chain with Y182A, A183S
B6: glucagon-like peptide 1 receptor (GLP-1R), wild-type, P43220 D372A (protein)
chain: B1 chain with A183S, D349A
B7: glucagon-like peptide 1 receptor (GLP-1R), wild-type, P43220 R380A (protein)
chain: B1 chain with A183S, R357A
B8: glucagon-like peptide 1 receptor (GLP-1R), wild-type, P43220 T298A (protein)
chain: B1 chain with A183S, T275A
B9: glucagon-like peptide 1 receptor (GLP-1R), wild-type, P43220 Q221A (protein)
chain: B1 chain with A183S, Q198A
B10: glucagon-like peptide 1 receptor (GLP-1R), wild-type, P43220 Y305A (protein)
chain: B1 chain with A183S, Y282A
B11: glucagon-like peptide 1 receptor (GLP-1R), wild-type, P43220 I286A (protein)
chain: B1 chain with A183S, I263A
B12: glucagon-like peptide 1 receptor (GLP-1R), wild-type, P43220 E294A (protein)
chain: B1 chain with A183S, E271A
B13: glucagon-like peptide 1 receptor (GLP-1R), wild-type, P43220 Q210A (protein)
chain: B1 chain with A183S, Q187A
B14: glucagon-like peptide 1 receptor (GLP-1R), wild-type, P43220 N304A (protein)
chain: B1 chain with A183S, N281A
B15: glucagon-like peptide 1 receptor (GLP-1R), wild-type, P43220 V287A (protein)
chain: B1 chain with A183S, V264A
B16: glucagon-like peptide 1 receptor (GLP-1R), wild-type, P43220 S219A (protein)
chain: B1 chain with A183S, S196A
B17: glucagon-like peptide 1 receptor (GLP-1R), wild-type, P43220 W203A (protein)
chain: B1 chain with W180A, A183S
B18: glucagon-like peptide 1 receptor (GLP-1R), wild-type, P43220 F381A (protein)
chain: B1 chain with A183S, F358A
B19: glucagon-like peptide 1 receptor (GLP-1R), wild-type, P43220 M303A (protein)
chain: B1 chain with A183S, M280A
B20: glucagon-like peptide 1 receptor (GLP-1R), wild-type, P43220 H374A (protein)
chain: B1 chain with A183S, H351A
B21: glucagon-like peptide 1 receptor (GLP-1R), wild-type, P43220 W297A (protein)
chain: B1 chain with A183S, W274A
B22: glucagon-like peptide 1 receptor (GLP-1R), wild-type, P43220 K288A (protein)
chain: B1 chain with A183S, K265A
B23: glucagon-like peptide 1 receptor (GLP-1R), wild-type, P43220 N302A (protein)
chain: B1 chain with A183S, N279A
B24: glucagon-like peptide 1 receptor (GLP-1R), wild-type, P43220 K383A (protein)
chain: B1 chain with A183S, K360A
B25: glucagon-like peptide 1 receptor (GLP-1R), wild-type, P43220 M204A (protein)
chain: B1 chain with M181A, A183S
B26: glucagon-like peptide 1 receptor (GLP-1R), wild-type, P43220 K202A (protein)
chain: B1 chain with K179A, A183S
B27: glucagon-like peptide 1 receptor (GLP-1R), wild-type, P43220 G285A (protein)
chain: B1 chain with A183S, G262A
B28: glucagon-like peptide 1 receptor (GLP-1R), wild-type, P43220 D215A (protein)
chain: B1 chain with A183S, D192A
B29: glucagon-like peptide 1 receptor (GLP-1R), wild-type, P43220 H212A (protein)
chain: B1 chain with A183S, H189A
B30: glucagon-like peptide 1 receptor (GLP-1R), wild-type, P43220 Y291A (protein)
chain: B1 chain with A183S, Y268A
B31: glucagon-like peptide 1 receptor (GLP-1R), wild-type, P43220 D293A (protein)
chain: B1 chain with A183S, D270A
B32: glucagon-like peptide 1 receptor (GLP-1R), wild-type, P43220 T207A (protein)
chain: B1 chain with A183S, T184A
B33: glucagon-like peptide 1 receptor (GLP-1R), wild-type, P43220 I382A (protein)
chain: B1 chain with A183S, I359A
B34: glucagon-like peptide 1 receptor (GLP-1R), wild-type, P43220 L218A (protein)
chain: B1 chain with A183S, L195A
B35: glucagon-like peptide 1 receptor (GLP-1R), wild-type, P43220 L307A (protein)
chain: B1 chain with A183S, L284A

Key:
human GLP-1R R190A = assay: cAMP production at R190A mutant; assay type: cell-based; conditions: Figure S3
Description: For cAMP assays, cells were stimulated for 30 min in the presence of the phosphodiesterase inhibitor IBMX and then lysed.
Dulbecco’s Modified Eagle’s Medium (DMEM) and Fluo-4 AM were purchased
from Invitrogen (Carlsbad, CA, USA). Foetal bovine serum (FBS) was purchased from Thermo
Electron Corporation (Melbourne, VIC, Australia). AlphaScreen reagents, 384-well opti and
proxiplates were purchased from PerkinElmer Life and Analytical Sciences (Waltham, MA, USA).
All other reagents were purchased from
Sigma-Aldrich (St. Louis, MO, USA) or BDH Merck (Melbourne, Vic, Australia) and were of an
Receptor mutagenesis. To study the influence of ECL amino acids, and R190 on receptor function,
the desired mutations were introduced to an N-terminally double c-myc labeled wild-type human GLP-
1R in the pEF5/FRT/V5-DEST destination vector (Invitrogen); this receptor had equivalent
Mutagenesis was carried out using oligonucleotides for
site-directed mutagenesis purchased from GeneWorks (HindMarsh, SA, Australia) and the
QuikChangeTM site-directed mutagenesis kit (Stratagene) and confirmed by automated sequencing
Cell culture: Stable transfections; Wild-type and mutant human GLP-1Rs were isogenically
integrated into FlpIn-Chinese hamster ovary (FlpInCHO) cells (Invitrogen) and selection of receptor-
expressing cells accomplished by treatment with 600 µg ml-1 hygromycin-B as previously described […]

human GLP-1R wildtype [1] = biological target: T1, human GLP-1R wildtype (Homo sapiens, UniProt P43220); assay: cAMP accumulation; assay type: cell-based; conditions: normalized to forskolin; n=3, duplicate; Figure S7
T1 sequence (P43220 24-463): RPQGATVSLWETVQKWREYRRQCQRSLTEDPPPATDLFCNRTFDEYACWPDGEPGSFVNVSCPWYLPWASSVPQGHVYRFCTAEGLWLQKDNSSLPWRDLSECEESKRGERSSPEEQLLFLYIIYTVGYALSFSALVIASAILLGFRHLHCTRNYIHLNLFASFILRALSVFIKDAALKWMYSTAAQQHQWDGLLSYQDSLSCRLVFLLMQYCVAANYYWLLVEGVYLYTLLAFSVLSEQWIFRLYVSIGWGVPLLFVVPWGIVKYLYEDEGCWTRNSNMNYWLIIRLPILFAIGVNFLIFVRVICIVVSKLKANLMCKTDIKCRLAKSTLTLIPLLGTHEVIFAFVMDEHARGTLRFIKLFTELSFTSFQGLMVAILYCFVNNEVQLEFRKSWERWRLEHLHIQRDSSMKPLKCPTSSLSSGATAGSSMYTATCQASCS

human GLP-1R wildtype [2] = biological target: T1, human GLP-1R wildtype; assay: ERK1/2 phosphorylation; assay type: cell-based; conditions: normalized to FBS; n=3, duplicate; Figure S7
exendin-4, P26349 = assay: radioligand inhibition binding (competition with 125I-exendin-4(9-39)); conditions: chain shown with the change;; read off a plot

Molecule	log10 ratio (exendin-4, P26349)	further results
modified oxyntomodulin: oxyntomodulin with Q^3 substituted with E (HSEGTFTSDYSKYLDSRRAQDFVQWLMNTKRNRNNIA; Oxyntomodulin; UniProt P01275 53-89, looked up, variant Q3E)		requirement of R190 for cAMP production (human GLP-1R R190A): required for cAMP production
GLP-1(9-36)NH2		cAMP response (human GLP-1R wildtype [1]): unable to activate the cAMP pathway; also recorded: unable to generate a cAMP response; pERK1/2 response (human GLP-1R wildtype [2]): can still promote pERK1/2; also recorded: maintains the ability to promote pERK1/2
B1	-0.2 ΔpKi	
B2	-0.4 ΔpKi	
B3	-0.2 ΔpKi	
B4	-0.55 ΔpKi	
B5	-0.5 ΔpKi	
B6	-1.1 ΔpKi	
B7	-1.5 ΔpKi	
B8	-0.1 ΔpKi	
B9	-0.2 ΔpKi	
B10	-1.7 ΔpKi	
B11	-0.3 ΔpKi	
B12	0.1 ΔpKi	
B13	-0.25 ΔpKi	
B14	-0.4 ΔpKi	
B15	-0.25 ΔpKi	
B16	-0.15 ΔpKi	
B17	-0.15 ΔpKi	

Molecule	log10 ratio (exendin-4, P26349)	further results
B18	-0.35 ΔpKi	
B19	-0.7 ΔpKi	
B20	-0.35 ΔpKi	
B21	-1.8 ΔpKi	
B22	-1.9 ΔpKi	
B23	-1.2 ΔpKi	
B24	-1.1 ΔpKi	
B25	-0.75 ΔpKi	
B26	-0.25 ΔpKi	
B27	-0.1 ΔpKi	
B28	-0.25 ΔpKi	
B29	0.3 ΔpKi	
B30	-0.45 ΔpKi	
B31	-1.1 ΔpKi	
B32	-0.2 ΔpKi	
B33	-0.15 ΔpKi	
B34	-0.95 ΔpKi	
B35	-0.8 ΔpKi	
